The data set has as its system Escherichia coli TOP10. In words: shrunken log2 fold change of peptide-encoding DNA abundance (4.5 h post-induction vs induction); higher = less antimicrobial activity (less host growth inhibition). The conditions noted are these: time post-induction: 4.5 h; library: site-saturation at positions 5, 18, 19, 20.

Results on 91 sequences are retold here after the supplement of paper PMC9112550, “Optimization of the antimicrobial peptide Bac7 by deep mutational scanning” (BMC Biology, 2022).
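Further: peptides expressed intracellularly from a pBAD plasmid library in pooled LB shake-flask culture, induced with 0.3% L-arabinose, DNA abundance read by NGS, three biological replicates, DESeq2 with apeglm shrinkage.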

Consider RRIRCRPPRLPRPRPRPMAYPRP, for which the “shrunken log2 fold change” value was -0.00456. As to RRIRFRPPRLPRPRPRPYDPPRP, the “shrunken log2 fold change” value is -0.0102. In the case of RRIRWRPPRLPRPRPRPCQNPRP it was -0.118. Regarding RRIRSRPPRLPRPRPRPNLYPRP, the “shrunken log2 fold change” value is -0.167. As to RRIRFRPPRLPRPRPRPFPTPRP, the “shrunken log2 fold change” value is -0.0582. For the sequence RRIRPRPPRLPRPRPRPRYWPRP, the “shrunken log2 fold change” value was found to be 0.0515.

As to RRIRHRPPRLPRPRPRPHKRPRP, the “shrunken log2 fold change” value came out at 0.0586. On to RRIRTRPPRLPRPRPRPKGIPRP, for which the “shrunken log2 fold change” value came out at 0.0275. In the case of RRIRSRPPRLPRPRPRPDHVPRP it was -0.0207; in that of RRIRQRPPRLPRPRPRPLKNPRP, -0.237. In the case of RRIRFRPPRLPRPRPRPVNWPRP it was 0.253; in that of RRIRPRPPRLPRPRPRPHPMPRP, -0.0882.

For RRIRDRPPRLPRPRPRPQGWPRP, the “shrunken log2 fold change” value amounted to 0.693. With RRIRTRPPRLPRPRPRPGSTPRP, the “shrunken log2 fold change” value stood at 0.857.

As to RRIRFRPPRLPRPRPRPRTKPRP, the “shrunken log2 fold change” value turned out to be 0.947.

RRIRRRPPRLPRPRPRPSQHPRP: the “shrunken log2 fold change” value came to 0.0591. Turning to RRIRFRPPRLPRPRPRPLCWPRP, the “shrunken log2 fold change” value came out at 0.135. As to RRIRGRPPRLPRPRPRPINSPRP, the “shrunken log2 fold change” value came to 0.134. Under RRIRLRPPRLPRPRPRPQYSPRP stands -0.1. For RRIRERPPRLPRPRPRPWRVPRP, the “shrunken log2 fold change” value is -0.0327. Under RRIRVRPPRLPRPRPRPYMPPRP stands -0.78; under RRIRTRPPRLPRPRPRPGPFPRP, 0.102; under RRIRKRPPRLPRPRPRPSQYPRP, -0.21.

For RRIRPRPPRLPRPRPRPGYQPRP, the “shrunken log2 fold change” value was -0.0523.

Take RRIRWRPPRLPRPRPRPSPIPRP: the “shrunken log2 fold change” value is -0.0871. In the case of RRIRHRPPRLPRPRPRPVTNPRP it was -0.222; in that of RRIRSRPPRLPRPRPRPDQVPRP, -0.0236; in that of RRIRCRPPRLPRPRPRPNGLPRP, -0.132. Consider RRIRSRPPRLPRPRPRPNVEPRP, for which the “shrunken log2 fold change” value stood at 0.814. Under RRIRCRPPRLPRPRPRPKLDPRP stands 0.125.

Take RRIRERPPRLPRPRPRPRAYPRP: the “shrunken log2 fold change” value is -0.125. Under RRIRHRPPRLPRPRPRPKWVPRP stands -0.302; under RRIRHRPPRLPRPRPRPGTKPRP, -0.0254. For RRIRKRPPRLPRPRPRPPKDPRP, the “shrunken log2 fold change” value is 0.498.

As to RRIRRRPPRLPRPRPRPGMLPRP, the “shrunken log2 fold change” value was determined as 0.0899. Take RRIRDRPPRLPRPRPRPECHPRP: the “shrunken log2 fold change” value came to 0.479.

For RRIRLRPPRLPRPRPRPALKPRP, the “shrunken log2 fold change” value stood at 0.489.

With RRIRGRPPRLPRPRPRPYNIPRP, the “shrunken log2 fold change” value is -0.2. RRIRGRPPRLPRPRPRPHDPPRP: the “shrunken log2 fold change” value worked out at 0.546. In the case of RRIRERPPRLPRPRPRPFCRPRP it was -0.0911; in that of RRIRLRPPRLPRPRPRPASPPRP, 0.0633. Regarding RRIRGRPPRLPRPRPRPRWLPRP, the “shrunken log2 fold change” value stood at 0.527. For the sequence RRIRERPPRLPRPRPRPLGVPRP, the “shrunken log2 fold change” value is -0.171.

As for RRIRRRPPRLPRPRPRPIWHPRP, the “shrunken log2 fold change” value turned out to be 0.176.

As for RRIRQRPPRLPRPRPRPFKKPRP, the “shrunken log2 fold change” value turned out to be 0.0942. For RRIRDRPPRLPRPRPRPGDMPRP, the “shrunken log2 fold change” value worked out at 0.164.

On to RRIRPRPPRLPRPRPRPIHQPRP, for which the “shrunken log2 fold change” value was -0.115. Under RRIRWRPPRLPRPRPRPEVYPRP stands -0.0423; under RRIRSRPPRLPRPRPRPHVTPRP, -0.232; under RRIRTRPPRLPRPRPRPYVEPRP, -1.12. As to RRIRRRPPRLPRPRPRPIENPRP, the “shrunken log2 fold change” value was -0.0103. For RRIRYRPPRLPRPRPRPKINPRP, the “shrunken log2 fold change” value was -0.902. As to RRIRIRPPRLPRPRPRPWAYPRP, the “shrunken log2 fold change” value was found to be 0.0382.

On to RRIRARPPRLPRPRPRPTVNPRP, for which the “shrunken log2 fold change” value is -0.0152. As to RRIRVRPPRLPRPRPRPALLPRP, the “shrunken log2 fold change” value was -0.211.

In the case of RRIRRRPPRLPRPRPRPKEVPRP, the “shrunken log2 fold change” value is 0.195. Take RRIRKRPPRLPRPRPRPMWEPRP: the “shrunken log2 fold change” value is 0.214. Under RRIRRRPPRLPRPRPRPYHCPRP stands -0.37. RRIRPRPPRLPRPRPRPVLIPRP: the “shrunken log2 fold change” value is -0.237. Take RRIRPRPPRLPRPRPRPIELPRP: the “shrunken log2 fold change” value was -0.0296.

Take RRIRARPPRLPRPRPRPKVSPRP: the “shrunken log2 fold change” value was determined as 0.669. For the sequence RRIRERPPRLPRPRPRPTVVPRP, the “shrunken log2 fold change” value was -0.188. In the case of RRIRYRPPRLPRPRPRPATFPRP, the “shrunken log2 fold change” value is -0.681.

Turning to RRIRYRPPRLPRPRPRPCVMPRP, the “shrunken log2 fold change” value is 0.0476. For RRIRWRPPRLPRPRPRPQHEPRP, the “shrunken log2 fold change” value was -0.0328. In the case of RRIRPRPPRLPRPRPRPGDPPRP it was 0.364; in that of RRIRIRPPRLPRPRPRPEVKPRP, 0.135. Turning to RRIRWRPPRLPRPRPRPNNFPRP, the “shrunken log2 fold change” value is -0.0323.

As for RRIRERPPRLPRPRPRPMYIPRP, the “shrunken log2 fold change” value was -0.289. In the case of RRIRSRPPRLPRPRPRPCWEPRP, the “shrunken log2 fold change” value was found to be 0.311.

For RRIRCRPPRLPRPRPRPRKSPRP, the “shrunken log2 fold change” value came to 0.126. In the case of RRIRMRPPRLPRPRPRPPACPRP it was 1.22; in that of RRIRGRPPRLPRPRPRPWYEPRP, -0.14; in that of RRIRDRPPRLPRPRPRPKYCPRP, -0.0392.

Regarding RRIRFRPPRLPRPRPRPWARPRP, the “shrunken log2 fold change” value is -0.114. As to RRIRHRPPRLPRPRPRPMREPRP, the “shrunken log2 fold change” value was 0.237. For RRIRFRPPRLPRPRPRPEDAPRP, the “shrunken log2 fold change” value is 0.00922. Turning to RRIRKRPPRLPRPRPRPNDYPRP, the “shrunken log2 fold change” value was -0.115.

With RRIRFRPPRLPRPRPRPRKTPRP, the “shrunken log2 fold change” value turned out to be 0.0798. Take RRIRERPPRLPRPRPRPDIWPRP: the “shrunken log2 fold change” value is -0.0258. As for RRIRHRPPRLPRPRPRPCYKPRP, the “shrunken log2 fold change” value is -0.522.

Take RRIRHRPPRLPRPRPRPEMDPRP: the “shrunken log2 fold change” value came to 0.015. On to RRIRIRPPRLPRPRPRPTFTPRP, for which the “shrunken log2 fold change” value was -0.373. RRIRERPPRLPRPRPRPHKAPRP: the “shrunken log2 fold change” value is -0.0142. For the sequence RRIRERPPRLPRPRPRPTWTPRP, the “shrunken log2 fold change” value was -0.07.

As to RRIRARPPRLPRPRPRPEKHPRP, the “shrunken log2 fold change” value came out at 0.0578. As to RRIRHRPPRLPRPRPRPQDDPRP, the “shrunken log2 fold change” value turned out to be 0.0649. RRIRWRPPRLPRPRPRPCTSPRP: the “shrunken log2 fold change” value is -0.174. For RRIRARPPRLPRPRPRPWSGPRP, the “shrunken log2 fold change” value is -0.0707. Regarding RRIRERPPRLPRPRPRPQDEPRP, the “shrunken log2 fold change” value was -0.941.

As to RRIRQRPPRLPRPRPRPIVWPRP, the “shrunken log2 fold change” value was -0.287.
